Reference: article PMC7468311 (Acta Pharmacologica Sinica, 2020)
Entries after “also recorded” stand apart in the source; their conditions may differ.

Columns and labels:
rat plasma [1] = test: Plasma clotting measurement in vitro, aPTT; format: biochemical, Sprague Dawley (SD) rats; conditions: at the same concentration
rat plasma [2] = test: Plasma clotting measurement in vitro, PT; format: biochemical, Sprague Dawley (SD) rats; conditions: at the same concentration
rat plasma [3] = test: Plasma clotting measurement in vitro, TT; format: biochemical, Sprague Dawley (SD) rats; conditions: at the same concentration
thrombin = thrombin (Homo sapiens, UniProt P00734); test: Bio-layer interferometry; format: binding
DTIP C6A-C14A mutant = test: BLI
DTIP D24A mutant = test: BLI
DTIP E35A mutant = test: BLI
DTIP Y3A mutant = test: BLI
[4] = molecular target: direct thrombin inhibitor peptide (DTIP); test: BLI

Substance: bivalirudin
- aPTT of DTIP compared with bivalirudin (rat plasma [1]): on the same order of magnitude
- PT of DTIP compared with bivalirudin (rat plasma [2]): on the same order of magnitude
- TT of DTIP compared with bivalirudin (rat plasma [3]): on the same order of magnitude

Substance: enoxaparin sodium
- Binding of thrombin in BLI (in words) (thrombin): no direct interaction; also recorded: No binding

Substance: thrombin (enzyme)
- Kd (DTIP C6A-C14A mutant): 138 nM
- Kd (DTIP D24A mutant): 194 nM
- Kd (DTIP E35A mutant): 188 nM
- Kd (DTIP Y3A mutant): 162 nM
- Kd [4]: 164 nM
